pEC50: −log10 of the molar value.

This note sets out measurements from patent US20220112268A1.

In test [1] the target is T cell receptor of OT-I T cells (cognate to the SIINFEKL tetramer), on OT-I T cells. Kind of test: labeled NP incubated with an OT-I/OT-II T cell mixture (1:1); reference free αPD-1 (FIG. 7B).
For test [2], the target named is PD-1 on PD-1-positive cells (EL4 cells) (UniProt Q02242). Kind of test: direct binding of Alexa Fluor 647-labeled sample to EL4 cells, flow cytometry, fraction of positive cells.
Sequence of UniProt Q02242 (Q02242 25-288 limits assumed): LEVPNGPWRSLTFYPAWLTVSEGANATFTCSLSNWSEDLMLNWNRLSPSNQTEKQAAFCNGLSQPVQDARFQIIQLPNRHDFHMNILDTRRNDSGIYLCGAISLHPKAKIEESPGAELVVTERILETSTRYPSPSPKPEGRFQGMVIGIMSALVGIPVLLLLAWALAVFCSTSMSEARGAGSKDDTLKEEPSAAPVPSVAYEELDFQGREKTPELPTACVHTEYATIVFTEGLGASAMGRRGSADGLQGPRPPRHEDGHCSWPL
For test [3] the target is unchanged. Kind of test: inhibition of PD-L1-human Fc (10 µg/mL) binding to EL4 cells, flow cytometry, competitor PD-L1-human Fc.
Test [4] has the same target. The experiment in a line: inhibition of PD-L1-human Fc binding to EL4 cells; reference intact αPD-1.
Test [5] has the same target. Kind of test: direct binding to EL4 cells, flow cytometry; reference intact αPD-1. On the technique in general: In flow cytometry, cells or beads pass a laser one at a time.
Test [6] has the same target. The experiment in a line: inhibition of PD-L1-human Fc binding to EL4 cells; reference soluble αPD-1-iTEP fusion.

As to “SIINFEKL tetramer-guided αPD-1 NP, nanoparticle assembled from iTEP-αPD-1 and iTEP-tetramer (H2-Kb/SIINFEKL) mixed at a 1-to-10 ratio (from UniProt P22629 37-163; P01901 22-305)”, in test [1], the targeting efficiency (OT-I:OT-II ratio of guided NPs divided by the OT-I:OT-II ratio of free αPD-1) is 37.3.
The term pEC50 denotes the EC50 on a negative log10 scale, so that one unit is a factor of ten. Lower therefore signals a large EC50. Consider “intact αPD-1 (anti-programmed death-1 antibody, RMP1-14 clone, IgG from hybridoma ascites)”, for which the pEC50 in test [2] is 6.96; in test [3] it was 5.88.
For the substance “soluble αPD-1-iTEP fusion, αPD-1(scFv) fused to the amphiphilic diblock iTEP (GAGVPG)70-(GVLPGVG)56-(GC)4”, the pEC50 in test [2] is 6.40; in test [3], 5.34. In addition, in test [4], the fold lower inhibition capacity than intact αPD-1 was 3 fold.
“αPD-1 NP, the nanoparticle form of the αPD-1-iTEP fusion, self-assembled and crosslinked by disulfide bonds”: the pEC50 in test [2] was 7.41; in test [3], 5.92. Further, in test [5], the fold smaller EC50 than intact αPD-1 is 3 fold. The fold stronger avidity than intact αPD-1 in test [5] is 4 fold. For the same substance, the fold higher inhibition capacity than the soluble αPD-1-iTEP fusion in test [6] was found to be 3 fold.
For the substance “αPD-1 scFv (recombinant single-chain variable fragment of the anti-PD-1 antibody clone RMP1-14), NH2-Histag(H6)-(GGGSG)3-VH-(GGGSG)4-VL-COOH”, the values for the pEC50 in test [2] and in test [3] were 6.49 and 5.38, respectively. In test [4], this substance showed a fold lower inhibition capacity than intact αPD-1 of 3 fold.
